Target: T1, FL-5Mal conjugated NFG1CG4-hFasLECD (human, UniProt P48023 139-281, N184Q | N250Q, Fluorescein-5-Maleimide conjugated to the unpaired cysteine in the N-terminal tag sequence (estimated 2.5 per trimer, approximately 83 % of the cysteines))
T1 construct: linker of the N-terminal tag, between FLAG (DYKDDDDK) and residue 139 of hFasLECD; printed in three-letter code; its Cys is the conjugation site; human Fas ligand (CD178) extracellular domain with residues 103-138 deleted: hFasLECD (139-281, N184Q, N250Q); It calls the protein a trimer in words only; also called Fluorescein-5-Maleimide conjugated human Fas ligand extracellular domain derivative; …
T1 sequence: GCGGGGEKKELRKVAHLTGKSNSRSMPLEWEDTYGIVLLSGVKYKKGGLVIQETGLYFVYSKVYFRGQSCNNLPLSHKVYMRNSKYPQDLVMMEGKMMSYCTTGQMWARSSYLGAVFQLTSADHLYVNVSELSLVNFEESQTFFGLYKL
Assay: SEC; mixtures of hFasRECD-Fc and the conjugate in several amount ratios on Superdex 200 10/300 GL; 50 mM Tris-hydrochloride, 150 mM sodium chloride, pH 7.5; 0.5 ml/min; absorbance at 280 and 495 nm
Conditions: both partners purified

B1: human Fas receptor extracellular domain—human IgG1 Fc domain fusion protein (Fc fusion, UniProt P25445 26-173, looked up)
chain: QVTDINSKGLELRKTVTTVETQNLEGLHHDGQFCHKPCPPGERKARDCTVNGDEPDCVPCQEGKEYTDKAHFSSKCRRCRLCDEGHGLEVEINCTRTQNTKCRCKPNFFCNSTVCEHCDPCTKCEHGIIKECTLTSNTKCKEEGSRSN
notes: human Fas receptor (CD95) extracellular domain; also called hFasRECD-Fc; source: baculovirus—Bombyx mori larvae expression system, purified (Hi-Trap Protein G HP, Mono Q 10/10; main peak also by Superdex 200)
binding result: binds
